Results published in the supplement of paper PMC12042874.
± gives the uncertainty stated by the source.

Test: amyloid nucleation score (Sup35N fusion, yeast selection) (log enrichment); library NNK1; higher = more nucleation; inactive = no reads after selection
In short: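 Using DiMSum, nucleation scores were taken as the log enrichment of output over input reads, centred on the mode score of non-aggregating sequences. The input and output reads came from Illumina sequencing of plasmid inserts, with sequences under 100 input reads excluded. The yeast were psi-negative, expressed Sup35N fused to peptides of 20 random codons, were induced with 100 μM copper sulfate for 24 hours, and were grown 7 days at 30°C on medium lacking adenine and uracil.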

Substance	amyloid nucleation score
LNHSAIRHTVSGLNPWSWAG	-0.288 ± 1.5
LNRSGIISITIMTWSFGNAQ	2.75 ± 0.13
LNSKILGKSRTCDENSWPFV	-0.27 ± 0.51
LNSLNVGLVEDKQYILYER	1.68 ± 0.39
LNSNPDCKTLFIHAWW	0.282 ± 1.2
LNTFWKIRTNMSMGTWS	0.79 ± 0.65
LNVCSRTPWYKSQSFVDRCV	-1.69 ± 2.4
LNVIVKDRGPCKSSSEIAVD	-1.35 ± 1.3
LNVTQYVKGSEWKWGSTTSP	0.176 ± 0.52
LPCHWVHVQGHHWLRLDVMC	0.2 ± 0.64
LPFMHYYHSGY	-0.814 ± 1.4
LPGMVSL	0.33 ± 0.42
LPLICRSSGLLV	-0.405 ± 1.6
LPYNHTQTVMDFIYFVFWLL	0.698 ± 0.24
LQNSDVFHADLQIISPTFCP	-0.826 ± 1.8
LQYSKGYDRVRDPILHTVN	0.389 ± 0.37
LQYWEVYSSCRMRVGYYSAD	1.67 ± 0.13
LRCLANVDSIICNSV	-0.071 ± 0.9
LRDRCTFG	-0.755 ± 0.5
LREGTFRLRQVTTFRGYRPW	0.101 ± 0.37
LREVGQNLVGMSV	inactive
LRHFCGTFAAVTRKRVYPLS	-0.95 ± 2.7
LRIARVYVYKIRAWSVVSGK	-1.35 ± 0.63
LRIERMWVWVSA	0.556 ± 0.65
LRIHGSTLRISLW	1.64 ± 0.28

Substance	amyloid nucleation score
LRILVITYILCT	-0.331 ± 0.42
LRIVS	-0.11 ± 0.4
LRNAMVMSLYN	-0.423 ± 0.72
LRNAVFVDPSCNYYVFILRL	3.72 ± 0.15
LRNIGCKY	1.01 ± 0.64
LRRLSIANLFIFAFSWRFYW	1.03 ± 0.52
LRRLTTVAGIVIAVTSEDDT	0.595 ± 0.73
LRSFIGRRS	0.272 ± 0.32
LRSIRVPP	-0.005 ± 0.32
LRSSVSFGQLSRNPHAGSSH	-1.4 ± 1.4
LRSTLPADRRGLICFSHI	0.528 ± 1
LRSVPRSRSF	0.783 ± 0.41
LRVKIHTIVIQWIANNGARL	0.39 ± 0.74
LRVYGGFLSMSCMRQRDGTV	0.151 ± 0.39
LRWFPEAFNGAERESLASNL	-0.102 ± 0.52
LRYASEGSKFFVWNLTYLNR	-0.147 ± 1.2
LSCLYDDCC	1.05 ± 0.61
LSDFLRPLVLVFLSTLEVAM	0.138 ± 0.35
LSFWLCSWSMWCKSQLGNDR	2.13 ± 0.13
LSGPLNGEDFHRIFQVDFRW	0.244 ± 0.79
LSHLRSLYKGCSYRMHSWMY	1.04 ± 0.58
LSHWMPVN	-0.527 ± 0.34
LSIIVHNCGVLVVSMTLTVI	-0.172 ± 1.6
LSLFCVLMY	2.1 ± 0.27
LSMRWYTSPFAFGIS	-0.114 ± 0.88

Substance	amyloid nucleation score
LSPGRYFDSPL	0.589 ± 0.77
LSQMSRCNPACAVVPASEMA	0.376 ± 1.1
LSQNLAPGIVFFAV	-1.02 ± 1.7
LSQTKSL	-0.012 ± 0.77
LSSAGYQFMFLSSFLGWEVN	-0.492 ± 0.44
LSSRFAWCIWGET	0.956 ± 0.73
LSSYGYHMRVDHVTNANPSR	0.159 ± 0.43
LSTDQLVSSLKCR	0.404 ± 0.41
LSYDEYPGMNASAAIQGLVV	-0.556 ± 1.4
LSYRCVVYSVMIWSDIRALV	0.655 ± 0.3
LTARSFKCF	inactive
LTCFVISVGTSSLIIDFWI	-0.647 ± 0.39
LTFMFTTRIA	-0.912 ± 1.1
LTFNAMMMMIMLIMSAYIVS	1.89 ± 0.46
LTGFCHFYGSIFTSYMKSL	inactive
LTGSRIMCFSMWR	-1.02 ± 0.43
LTGYTAS	0.295 ± 0.37
LTIRQWRFITAVGDLFLWMR	0.331 ± 0.58
LTLICSSGEC	2.14 ± 0.17
LTLLA	-0.096 ± 1.7
LTLMGRSMNKYVAGSTTRAL	-0.371 ± 0.29
LTVLACPRYSS	0.525 ± 0.87
LTWHRLSISHTVAYLSTDSI	inactive
LTYCDIVLSMMSLDEKSDYD	inactive
LTYSPWGCWIYMCYGERFWR	7.883 ± 0.062

Substance	amyloid nucleation score
LVCSGKWFVKSARLQ	0.962 ± 0.14
LVFTNTLSTIFNNLHCYMWE	4.49 ± 0.12
LVFWRLCERHRWLRGFESA	-1.06 ± 1.5
LVGGCPLTRGRGYGRPRNGG	-1.9 ± 2.7
LVIHCDQTHIKVQRDVPRRW	2.98 ± 0.15
LVILRGLGPDSCYYC	-0.248 ± 0.86
LVIYVVSDDSVGLTNWRIVA	3.76 ± 0.065
LVLAENCR	-0.672 ± 0.68
LVLGAVV	-0.104 ± 0.87
LVLIRKLVWGSGSDTLWVRR	inactive
LVMCFVMGMLNLDAGLIMRM	0.425 ± 0.37
LVMGMHYSLVV	0.125 ± 0.46
LVMLRCAMTLCSIMLNYTPR	0.89 ± 0.39
LVNIHVIQKAFVGTVASSKV	5.07 ± 0.067
LVNNSSCYHCQRLGQLEVNK	0.215 ± 0.33
LVRAIIANCAYFCQFRFSLG	0.944 ± 0.69
LVSQVFNVQRYGGRTVPQSF	0.364 ± 1.2
LVVLLIRTNCVKRKEFGERA	-2.04 ± 2.4
LVYILMLYWVYGQIGNFSLV	-0.955 ± 0.9
LWAFIIGIVSTTLLGYKPFH	-0.344 ± 1.1
LWFNSDLIE	-0.369 ± 0.35
LWGDYPFRDVPRTMVDQRRN	0.079 ± 0.98
LWKGATRCHKVLRMLENDND	-0.606 ± 0.9
LWKNVVWTTGPIIASWVSDL	2.04 ± 0.11
LWLRCLSIAAGIHQ	2.31 ± 0.12

Substance	amyloid nucleation score
LWMYYESFF	0.843 ± 0.6
LWVRSKFRSC	-0.08 ± 1.1
LWVSNSSIRLDRNINQTLAT	0.019 ± 1.4
LWYCYYSVVFILSGALSHCV	-0.252 ± 1.4
LYCSNLILVWLFCRSDISVR	5.17 ± 0.056
LYESELLNNHQETSPQSSEG	-0.349 ± 0.56
LYGFANYFRFMRYWTRNVVP	0.124 ± 1.2
LYIFGAY	-1.26 ± 0.53
LYIFLNEDDRFSMKQGVKGG	0.546 ± 0.83
LYIMGRLDFIFRWVTGGFDT	-0.838 ± 0.77
LYIMLLLLLLTSQYT	-0.347 ± 0.63
LYLLSDNFR	1.68 ± 0.72
LYNLGHDSVGDLSFFCLRGW	-0.427 ± 0.36
LYNSRTWMIGIGSPAQIV	-0.731 ± 0.61
LYSGFNRSKRSAVNSICAH	0.368 ± 0.18
LYSLATIDNYMPWCQGSSGS	inactive
LYVFHRRYYWANYDDRYPLP	0.613 ± 0.48
MCGFF	-0.178 ± 0.57
MCLAMSIFDKTENK	-0.731 ± 0.73
MCLFENMFDHFSGSLQSHGG	0.318 ± 0.27
MCYVRMTFGTRDCHERVSLS	inactive
MDARKTGTDNWRTS	-0.202 ± 0.32
MDQFDLGSYSCASFQDTPAL	1.39 ± 0.18
MDRNFSILTF	inactive
MDVIFGLMS	0.729 ± 0.51

Substance	amyloid nucleation score
MEKYYGQLLKDY	0.224 ± 0.29
MFDTRDRMAALTFVKRMWCK	inactive
MFFSSIYVAYYGLLLIYSYM	inactive
MFNKVSLSVWASFVWKIIIH	-0.654 ± 0.83
MFSNILHAHLRAWA	0.53 ± 0.27
MFSRF	0.607 ± 0.79
MFSSVLIWKY	1.12 ± 0.56
MGAVKH	-0.017 ± 0.3
MGDSISVFMKSRFCVCTWGG	inactive
MGGRSPMELAISRVVVVVKW	inactive
MGLFFERSVKCSLF	-0.946 ± 1.1
MGLSLPSFW	-0.516 ± 1.7
MGNHCLTR	1.12 ± 0.58
MGQGLCPRSYMFLVCELIVF	0.818 ± 0.43
MHISWPYYRHDIVRRKSCSA	0.011 ± 0.29
MINTTMRSDRRNNWLG	2.94 ± 0.064
MIRPVFLVFVYMLFCLGNCT	0.383 ± 0.28
MISFCSSWKLEQYEWWRRNL	1.35 ± 0.32
MITWMYASWYNRPVLVYQFW	0.233 ± 0.28
MKVIDFVGFPFMGWRKWKTW	-0.063 ± 0.35
MLCFSLVYNGREGYEINLLH	-0.552 ± 0.31
MLGLWIVARLVLSVDSQRVE	inactive
MLHICCFQSVHLMDWSSH	-0.144 ± 0.67
MLHYAWVGLSVNDMVLPEMC	-0.78 ± 0.67
MLLIVPLFDSEVVWPGVVWT	-0.235 ± 0.66

Substance	amyloid nucleation score
MLLSH	4.34 ± 0.056
MLLWVWMEFY	0.991 ± 0.33
MLNELWVQRWINLSLKYDNQ	0.957 ± 0.45
MLPQSSSRQLRVGCASLCNM	-0.148 ± 0.6
MLRFRCVRQP	0.102 ± 0.35
MLRTAMKCWSTSMGDCLEAF	0.619 ± 0.48
MLSGP	-0.161 ± 0.67
MLWFSGCPRGGQRGVCESQG	0.284 ± 0.55
MMLLYCRLIWSPISDRICQF	-0.498 ± 0.42
MMVFKVSFKVIKVT	-0.07 ± 0.86
MMYSIVRMLAFNAWSMR	0.681 ± 0.49
MNDVNLFMEYNKSFYVDFYM	1.61 ± 0.15
MNGYLRLHSDTNCSCC	inactive
MNRHGYHNIWWYTTSHGLYT	-1.05 ± 2.7
MNTLYCWGKCGLVTSLVGLI	0.059 ± 0.73
MNYVSMHDYYRVVH	0.128 ± 0.61
MPGLWVFASALTQQEGTLEM	-0.251 ± 0.79
MPKCSTLNTKVFRPMVWFSV	1.43 ± 0.29
MPTRKTMDGYASIEF	-0.486 ± 0.41
MPVFSFLWPMKDMPHKVLS	0.364 ± 0.36
MQNMNEVSIINVAERVVNGG	inactive
MQSLRLTESSGPFSLYFAFI	-0.227 ± 0.81
